Laboratory results taken from patent US20250283063, “NOVEL CRISPR-CAS12I SYSTEMS AND USES THEREOF” (HUIDAGENE THERAPEUTICS (SINGAPORE) PTE. LTD., published 2025).
Numbering of substitutions follows the chain as printed.

Legend:
[1] = target: T1, Cas12Max (xCas12i-N243R, v1.1) (N243R); assay: cell_activity; PAM TTTG; on-target; details: tags: NLS
T1 chain: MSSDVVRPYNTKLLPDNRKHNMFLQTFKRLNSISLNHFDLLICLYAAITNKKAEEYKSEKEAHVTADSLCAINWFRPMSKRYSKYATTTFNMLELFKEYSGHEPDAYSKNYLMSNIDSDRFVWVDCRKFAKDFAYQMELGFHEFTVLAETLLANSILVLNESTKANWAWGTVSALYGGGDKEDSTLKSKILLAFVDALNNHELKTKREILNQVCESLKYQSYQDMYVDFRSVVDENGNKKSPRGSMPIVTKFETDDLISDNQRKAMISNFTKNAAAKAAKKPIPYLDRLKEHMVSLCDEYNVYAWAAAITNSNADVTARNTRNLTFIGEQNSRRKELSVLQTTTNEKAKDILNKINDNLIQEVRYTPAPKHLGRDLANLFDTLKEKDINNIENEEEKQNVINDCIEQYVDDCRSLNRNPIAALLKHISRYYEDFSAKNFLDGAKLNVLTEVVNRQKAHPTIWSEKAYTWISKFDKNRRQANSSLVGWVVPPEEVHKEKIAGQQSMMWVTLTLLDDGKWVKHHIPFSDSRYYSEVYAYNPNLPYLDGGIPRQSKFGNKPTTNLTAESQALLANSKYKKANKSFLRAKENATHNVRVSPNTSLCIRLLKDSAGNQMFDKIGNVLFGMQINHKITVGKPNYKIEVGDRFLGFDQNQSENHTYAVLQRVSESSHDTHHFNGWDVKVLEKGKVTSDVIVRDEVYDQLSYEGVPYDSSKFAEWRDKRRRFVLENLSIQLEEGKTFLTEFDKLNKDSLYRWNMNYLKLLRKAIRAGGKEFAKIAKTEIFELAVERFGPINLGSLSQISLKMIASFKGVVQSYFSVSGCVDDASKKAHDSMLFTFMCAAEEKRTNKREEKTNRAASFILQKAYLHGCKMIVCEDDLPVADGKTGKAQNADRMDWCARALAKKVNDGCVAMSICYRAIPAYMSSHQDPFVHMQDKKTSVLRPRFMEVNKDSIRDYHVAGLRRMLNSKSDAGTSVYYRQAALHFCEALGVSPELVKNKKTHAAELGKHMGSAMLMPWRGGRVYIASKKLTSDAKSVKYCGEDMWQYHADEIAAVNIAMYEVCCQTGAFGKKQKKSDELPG

hfCas12Max (v6.3) = target: T2, hfCas12Max (v6.3) (N243R,E336R,D892R); assay: cell_activity; PAM TTTG; on-target; details: tags: NLS
T2 chain: T1 chain with E336R, D892R

B1: TTR.2 crRNA ; TTR ON.1 (ssRNA ; dsDNA)
RNA: AUGACUCAGAAAUGUGUCCCCAGUUGACACUAGAAGGGAUAUACAAAGUGGA
DNA 1: TTTGTAGAAGGGATATACAAAGTGGA
DNA 2: TCCACTTTGTATATCCCTTCTACAAA
Q: For B1, which activity [1] is on record?
A: 73.8%

Q: What about the activity (hfCas12Max (v6.3)) of the same binder?
A: 77.7%
